Experimental data from PMC9618068.

Assays:
[1] = molecular target: actin (ATP-G-actin from chicken skeletal muscle) (chicken) (UniProt P68139)
[2] = molecular target: actin (ATP-G-actin from chicken skeletal muscle) (chicken) (UniProt P68139); assay: ITC

| Substance | Pi released from actin in the presence of F1^15-160, compared to F1A [1] [%] | stoichiometry N [2] |
| --- | --- | --- |
| F1^15-160, an N-terminally truncated version of F1 that lacks Asn13 (domain or fragment) | 25 | – |
| fragmin domain-1 (F1) (residues 1 to 160) (domain or fragment) | – | 0.956 |
